# This sample holds only a part of the variants without activity.
# B1: TPR 5TU (parent)
# chain: GGAUCUUCUCGAUCUAACAAAAAAGACAAAUCUGCCACAAAGCUUGAGAGCAUCUUCGGAUGCAGAGGCGGCAGCCUUCGGUGGCGCGAUAGCGCCAACGUUCUCAACUAUGACACGCAAAACGCGUGCUCCGUUGAAUGGAGUUUAUCAUG
# Variants of: B1
# Test: polymerase ribozyme fitness, log enrichment relative to wild type (log ratio); higher = more active; in vitro selection for triplet polymerase activity
# How it was run: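 To select mutant libraries of each subunit of a heterodimeric triplet polymerase ribozyme, built by PCR and transcribed, each was annealed with a biotinylated primer, partner subunit and triplets, then incubated frozen at −7 °C. Extended constructs were gel-excised, captured on streptavidin beads and amplified by RT-PCR, in one round carried out in triplicate. Illumina sequencing of input and output libraries kept genotypes with ≥10 input reads and ≥1 read per output. Fitness is the base-2 logarithm of genotype enrichment relative to wild-type enrichment, from inverse-variance-weighted replicate averages.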
row,Variant,polymerase ribozyme fitness (log ratio)
1,C75U G133U,-3.54
2,C27G A29G A41C G67A G74A,≤ -4.2
3,A19G C93U,-1.99
4,U6A G50C G86U U102C A121C,≤ -4.2
5,A91C U102A C132U,-3.54
6,U33C C87A,-3.95
7,A28U A41U C93U U144C,-4.14
8,A26G G48C A49G A73G C76U G83C G92U U148C,≤ -4.2
9,U33A A98G G124C,≤ -4.2
10,U31C C87A C108U U148C,-3.95
11,A73U G80A U134C,-1.91
12,U109A U135C,-3.36
13,C105U U130A C131G G140U,-3.96
14,A3G C96U,-0.935
15,A17G C35U C85G A98C A121U C123A,-1.35
16,G81C C93G,-3.69
17,A3U G59A C75U C93A A138G,-3.95
18,C85U A106U A113C A115U,≤ -4.2
19,C93U C96U,-3.28
20,C8G U56G A91G,≤ -4.2
21,G34C G94C,-3.85
22,G83A A115G G136A U144C,-3.84
23,A22C G70C,-4
24,U13G G42C A49U G65A G71A G92A,-3.74

row,Variant,polymerase ribozyme fitness (log ratio)
1,G59U G126A,0.622
2,A22C C85G,-2.43
3,A23G A47C C103G A122G U145A,≤ -4.2
4,U31A C51G C54U A122G,-2.68
5,C8U A22C A39G C85G A106G A119G,≤ -4.2
6,A19G A23G A110U,≤ -4.2
7,C8A C87U,-3.89
8,U6A C54U C85G A115C,-2.97
9,A91G U144C,-2.47
10,U4G A23C A30U A52C U56A,≤ -4.2
11,C10G C87A C93U,≤ -4.2
12,C5A A22C C38A G71A A89C,≤ -4.2
13,A122C C125A,-0.874
14,C14U G84C A122G G136A,-3.51
15,A40C U55A G86C A115C,-3.79
16,G59C C63A G126A,-0.167
17,A19U C95U C99A U145A,-2.13
18,C8U U13C C27A G50A U61A G62U C93U A106C A110G C125G,≤ -4.2
19,C14G A60G,-2.34
20,C14A A23U U31C U44A A73G G83C A110G,≤ -4.2
21,C32G C108G G140U G141A U145G,≤ -4.2
22,G58A C76G C125U C132A G133C,≤ -4.2
23,C95U C96U,-1.18
24,G84A G126U,-0.0664

row,Variant,polymerase ribozyme fitness (log ratio)
1,A17G A21C G46C G58U U135G,-4.12
2,A19U C51U A91U G94A G133A A137C,≤ -4.2
3,C8G A39C U77C U104G A115C,≤ -4.2
4,A26C C85G C118A,-3.99
5,A24G U55A C57U A73U U82G G92A A97U G141C,≤ -4.2
6,C123U G141U,-0.894
7,C14G A23U G46U A66G G70A A91G C116G C131G,≤ -4.2
8,A37C A49C U77A C87G A120G C131G,≤ -4.2
9,U31G C38A U45A G83C C95A,≤ -4.2
10,A21C C85G C114U,-3.13
11,A17G U31A,0.512
12,U56A G58A C93A,-1.41
13,A24C U55A A60G A97U,≤ -4.2
14,G46U C72U C87U,-1.01
15,C10G A98G,-4
16,U53G C54G C57U C95U,-4.07
17,G25C G42C C57U G70A C87A G143A,≤ -4.2
18,A22U A98G,-0.232
19,A24G G70C C79U C95A C96G,≤ -4.2
20,U15G A16U C85U C118U,-1.42
21,A23U G58C G68A C79G A150G,≤ -4.2
22,A19C U31A G92U,0.391
23,A16U C116A G136A G140C,≤ -4.2
24,G94A C105G,-1.68

row,Variant,polymerase ribozyme fitness (log ratio)
1,A19C G67C,≤ -4.2
2,G83C C95U G136A C149U,-2.18
3,A16G A39G G68A C95A C103G C108U U111G A115G C123U,≤ -4.2
4,C75U G80A C85A U146C,-3.11
5,A20U C54G G70C C79G G92U A107U,≤ -4.2
6,A16G A30U G81C C95U A110G,≤ -4.2
7,C96A G124U C149G,-3.82
8,U53A G86U A142U,≤ -4.2
9,A30G G71C U78A C95G A115C,≤ -4.2
10,G11A,-0.693
11,A39C C63A A119C,-4.05
12,A21G A26G C38G C72U C87G A89U A150G,≤ -4.2
13,A73U G81A C118G A120U U135A,-3.75
14,A17C A24U G48C A89G C93G G128U,≤ -4.2
15,A30G A52C A60C C125U,≤ -4.2
16,A22U A28U C38G C51U G83C,≤ -4.2
17,G83A G88C A91G C95U A137G,≤ -4.2
18,A30G,-2.24
19,U4C A20U A64C C85G U101C C118U,≤ -4.2
20,A49C A52G U78C C93G U146C,≤ -4.2
21,A26U G42C G50U C93A A115U G117C,≤ -4.2
22,C14U U45A G50C C57A A91U C103G C105A,≤ -4.2
23,A23U C63A C114G,≤ -4.2
24,U44A A47C A52G C79U C85U C118U,≤ -4.2

row,Variant,polymerase ribozyme fitness (log ratio)
1,A29U G59A C79G G80U G84U G124U,≤ -4.2
2,A12G A52C G59A,-1.78
3,A23G C54G U56A A138U G140U U146C,≤ -4.2
4,G25C A41C C96G A110G U148C,≤ -4.2
5,C5A G50U G84A U135A U139A G141C,≤ -4.2
6,U15G A21G U135C,-2.43
7,C14A C32U C85U A98U U111G U139G U151A,-4.14
8,C35G G80A A91U C105U,≤ -4.2
9,C93A A121G U144A,-1.18
10,A24G A30G A52C U53G G59A C87U G92U G128A U139A,≤ -4.2
11,U44A A60G G67A G92U C105A,≤ -4.2
12,C5G A37U C43U A98G A121G,≤ -4.2
13,A12U U56A C93U,-1.4
14,A40C C76U G86A A115C U135A A142G,-3.94
15,A49U A52C G59A A73U C76G G84U,≤ -4.2
16,U6G G46U G88C U134A A138G,≤ -4.2
17,C57U G94U U127C C132U,-3.37
18,A3U A39G G58C C96U,-3.39
19,G34A U55A A91G G117U,-4.06
20,G42A G80C G86C,≤ -4.2
21,G46U G68C U78A C93G C99U G100C C118A A119U U144G G152A,≤ -4.2
22,A40C G62U A97G C116G A122U,-1.6
23,C87A G141C,≤ -4.2
24,A49U C93A C103U A119U,≤ -4.2

row,Variant,polymerase ribozyme fitness (log ratio)
1,G92U C125A,-1.82
2,C18U A89C A91G A122U C125A U134C,≤ -4.2
3,C57G A110U C123A,-4.11
4,U13C A21U A52C U55G G67U G80A C105U A150C,≤ -4.2
5,C5U U6A C57U G67C G71A U82G C87G U104A U139G A142G,≤ -4.2
6,U4C C51A U82A C96A,≤ -4.2
7,C76A C87U G140C,≤ -4.2
8,U55A G65U G70U C87A C95U A98G A137C G141A G143C,≤ -4.2
9,U56A C76G C85U A91G U111G C118U G140A G143A,≤ -4.2
10,U56A G81C G83A C87G A107G A122C G141U,≤ -4.2
11,A52U G84A G117C,-0.726
12,C18G A22G C27U A41U A49C C57A C93G G140C,-4.12
13,C85U A106C,-3.33
14,G84C C93U,-4.07
15,U44C U56A,-3
16,U77G C87U G88A G140C A142G,≤ -4.2
17,G46C C85G G88A C118U U144G,≤ -4.2
18,A30G A47G G71C C87G U135G,≤ -4.2
19,C14G C57G C87G,≤ -4.2
20,A3G U13G A23C C43A C87U,≤ -4.2
21,C57A G74A,-2.66
22,A40U C51G,-1.26
23,A22U C105U G136C,-2.55
24,C5A A39U C85U U90G C118U C125U,≤ -4.2

row,Variant,polymerase ribozyme fitness (log ratio)
1,U31G A40U G42A C85A U148C,≤ -4.2
2,G59U G84A U104C,-0.647
3,C96U U127C,-1.34
4,G58U G71A A91U G92A G126A G133U,≤ -4.2
5,G58C U134G A150U,-3.62
6,A21C A24G A28G A29U G71C G83A G124U,≤ -4.2
7,A115U U134G,-3.31
8,U7G G50C A52C G84A C114U A138G,≤ -4.2
9,C14U A73G C75G C87A A98G U111G,≤ -4.2
10,A39G U55A A91C C108A U144C,≤ -4.2
11,U101G U144C,-1.9
12,A24C C87A A106G U135C,≤ -4.2
13,C54G A64G G94A G100U C105A,≤ -4.2
14,G42U U55G G59A G88U C96G A98G,≤ -4.2
15,G83U G141C,-1.18
16,U61A C149U,-1.63
17,A26U C36A U56G C108A A137C,≤ -4.2
18,A41C U56A G70U C75G C93U C132U G136C,≤ -4.2
19,C32U C43A C87G A107C C118U G124C,≤ -4.2
20,A20G G94A C105G,-2.04
21,A24C A29G G46U C85U C129G C131A G141C,≤ -4.2
22,C51G A60G A73G C123G,-3.71
23,A52G C96G C131U,-0.425

# Reference: the RNAGym collection of RNA variant scans (doi:10.1073/pnas.2313332121)
